Results taken from the DeepSol protein solubility set.

Assay: soluble on expression in E. coli; label from the status in PepcDB or PDB records

| Sequence | soluble on expression in E. coli |
| --- | --- |
| MSLKVGLKLLQTPKESMLFNIDSYKIIGIGISRGNEKYMKSTICVARNIFTNGILVGSFEGILGGRTARLCSYKFVDYFLNKVSNKVVQESIEESLISTFQRLNEKIKEKNLNDVSSGLVYVFYNKILYFAQCGSIKSYIISNSNIKEIGFDHCLSNNEMKKKIMQKGGLVDNNNMLNGVINVCKCIGESNYHNLLNTTPDITKIEYDDDFKFVLTASKSVWDVIDQNELQSIVINSAHIQPPGIANLIRNIALERNCKGNISVTILSLDSEGHHHHHH | soluble |
| MAESLITKKAIAGGLMELCQHKRFEKISIADITNICGLNRQTFYYHFTDKYDLLTWTYENDFFHCLADGITLENWDKHVLKMLESIKENADFYKNTVSADASILSFCFSKLTNSLFMDLFEKIDTNGAVNEADRVFYAEFFSYGCSGVLIKWITRGFKEAPETIANQLFRLAKDTEFLANSMYRENLEHHHHHH | soluble |
| MLHLVLYQPEIPQNAGNVARTAAALGWPLHLIRPLGFLLSSPKLKRAGLDYWPHVDLRLHDSFAAFLEALPRGARVFAFSARGEASLYEARFREGDYLLFGPESRGLPEEVLARFPTLKIPMPGPVRSLNLAVAVGVAAYEAYRQLTGR | soluble |
| MTHALLIGNPNCGKTTLFNALTNANQRVGNWPGVTVEKKTGEFLLGEHLIEITDLPGVYSLVANAEGISQDEQIAAQSVIDLEYDCIINVIDACHLERHLYLTSQLFELGKPVVVALNMMDIAEHRGISIDTEKLESLLGCSVIPIQAHKNIGIPALQQSLLHCSQKIKPLKLSLSVAAQQILNDLENQLISKGYKNSFAYYFSRRLAEGDTLIGEKAFTESLLIKLQETEQNLDVLLADARYQKIHEIVTLVQKK | soluble |
| MSLADSSYYDEDYRPQYHFTPEANWMNDPNGMVYYAGEYHLFYQYHPYGLQWGPMHWGHAVSKDLVTWEHLPVALYPDEKGTIFSGSAVVDKNNTSGFQTGKEKPLVAIYTQDREGHQVQSIAYSNDKGRTWTKYAGNPVIPNPGKKDFRDPKVFWYEKEKKWVMVLAAGDRILIYTSKNLKQWTYASEFGQDQGSHGGVWECPDLFELPVDGNPNQKKWVMQVSVGNGAVSGGSGMQYFVGDFDGTHFKNENPPNKVLWTDYGRDFYAAVSWSDIPSTDSRRLWLGWMSNWQYANDVPTSPWRSATSIPRELKLKAFTEGVRVVQTPVKELETIRGTSKKWKNLTISPASHNVLAGQSGDAYEINAEFKVSPGSAAEFGFKVRTGENQFTKVGYDRRNAKLFVDRSESGNDTFNPAFNTGKETAPLKPVNGKVKLRIFVDRSSVEVFGNDGKQVITDIILPDRSSKGLELYAANGGVKVKSLTIHPLKKVWGTTPFMSNMTGWTTVNGTWADTIEGKQGRSDGDSFILSSASGSDFTYESDITIKDGNGRGAGALMFRSDKDAKNGYLANVDAKHDLVKFFKFENGAASVIAEYKTPIDVNKKYHLKTEAEGDRFKIYLDDRLVIDAHDSVFSEGQFGLNVWDATAVFQNVTKESEGHHHHHH | soluble |
| GAMVMRLGDAAELCYNLTSSYLQIAAESDSIIAQTQRAINTTKSILINETFPKWSPLNGEISFSYNGGKDCQVLLLLYLSCLWEYYIVKLSQSQFDGKFHRFPLTKLPTVFIDHDDTFKTLENFIEETSLRYSLSLYESDRDKCETMAEAFETFLQVFPETKAIVIGIRHTDPFGEHLKPIQKTDANWPDFYRLQPLLHWNLANIWSFLLYSNEPICELYRYGFTSLGNVEETLPNPHLRKDKNSTPLKLNFEWEIENRYKHNEVTKAEPIPIADEDLVKIENLHEDYYPGWYLVDDKLERAGRIKKK | soluble |
| KNNINKTRMNDLNREETRLKTFTDWPLDWLDKRQLAQTGMYFTHAGDKVKCFFCGVEIGSWEQEDQPVPEHQRWSPNCPLLRRRTTNNVPINAEALDRILPPISYDICGANDSTLE | soluble |
| MNDYIVVKCGGSMLEQLNDVFFDCIKKLQQQYKVVIVHGGGPEIDAKLKDCNINVEKRDGLRVTPKEVMDVVQMVLCGSTNKKFVMNLQKHNLLAVGCSGCDGKLLQVQPVSEEIGYVGEVSYVETALLKGLINMNYIPVIAPIGIHDNEIYNINADTAAAGIAAALSAKELILITDVDGILHEGKLVKKTDESEIATLIEKGVITGGMIPKVQAALASLKMGVQKISIVNGTKDFTEDTGECIGMTVTRGVSIV | not soluble |
| MGVTLAKGGNVSLDKQAPNLTAVAVGLGWDARSTTGHEFDLDASALATGENKKVLSDQHFVFYNNLRSPDGSIQHEGDNLTGEGDGDDEVINVDLKAVPPNVTNIFFPVSIHEAELRGQNFGQVTNAFIRVVDRSTGNELVRYDLSEDASSETAMTFGELYRHNGEWKFRAIGQGYASGLSGIARDYGVNI | not soluble |
